These results are taken from a protein production outcome set (Wang et al. 2014).

This series in a line: label from the status in PepcDB records.
For the sequence “MYTKQHTIKAPVKVSGVGLHTGAQVNLTFVPAPINHGILFKRVDLPDQPVVECDVDNVVDVSRGTSIEKNGARINTVEHALAALVGLQIDNILIELDGPEIPIMDGSSLPFIEAINAIGLEEQNALRNFFEVPHGIFFQDAEKNIELAALPLDDYRVTVMVDYNSPVLGSQHATLNNINQFEKEIASCRTFCFLHELEMLHKQNLIKGGDLNNAIVIVDRIVKDDELDSLAKLFGKDKVEVKKEGILNNIELRYKNEPARHKLLDVVGDLALVGRPLKAQIMAARPGHASNVAFAKKLKRVMMDSRQKAPHYDITQPSVLDVNQIYKLLPHRYPFKLVDKIVHLDENMIIGVKNVTINEPFFEGHFPGNPVMPGVLQIEAMAQTGGIFVMQSVPDPENYWTYFLSIESAKFRRMVVPGDTLVFKCELTAPIKRGIAKMQGQAYVGGNLVCEASLTASIVKKK”, the protein production result is listed as “failed”. As for “MRASSSQGTPMNTALHDNREVVTVCLQHKVLDGSPGTPAAQPPRWKQALLTYLVICPMTMVIPQLLAPLFARFPQLGGVITGNLIVNLFVILPVVFYIMPWVTRRCANWLRG”, the protein production result is “failed”.

Turning to “MLPSPSSSSAPTKRIDPSELKRVFQMFDKNGDGRITKEELNDSLENLGIYIPDKDLTQMIHKIDANGDGCVDIDEFESLYSSIVDEHHNDGETEEEDMKDAFNVFDQDGDGFITVEELKSVMASLGLKQGKTLDGCKKMIMQVDADGDGRVNYKEFLQMMKGGGFSSSN”, the protein production result is “not failed”.

As to “MPQTSSVFRYPGGKTQLYSFVHHLLKINSITDISLEPFAGGAGIPLKLLIDNRINTVWINDYDKAIYSVWDTILNDPVALISLIESVPFDYHSGHKISPEFSISFWKKQKDIYLNNKNHQHSIELAFSTLFLNRTNTSGIITAGPLGGFKQNRKTQIYARFNKETLINKINLIHSFKSQIKLTRLNTLDMIPKIRNSVDPKNSFIFFDPPYFEQGKELYYSSFNEQGHKELANGILSLKQYHWITTYDTAPQIQEDYTMAKQKYEYSLNYSANNKNRGKTAEFMFASPVTRLSSFEKVDLTPLA”, the protein production result is on record as “failed”. Then “MKEKIPFYNEKEFHYMMKKTKKGTFSGWYIINPENNSVEFSGSFNRQFKLNKPVIPVNTEYVTRKEFNEYKDSNDQRLTKIENKVDKLEIKVDKLEKKVDKLEVKVDKLVETVNAQGEDLNNFKVEVRGTLQSQGETLQLILQTLQGMSKRLDSVEGRLDSMDGRLDSMETRLDKIDPLKLEHHHHHH”, with “failed”; and “MKVLCINPPDDLAALLGDGASFVSTMEPLGLLYVAAACREAGHEVAFIDAYAENLDEETLMRRIRDAAPQVVSFTSFTSNGGFLYTFGRRLRQEMPGVHVLLGNVHATIYARQYLASGCCDVVVRGEGEEVMPALLRVLEEGGDLATVPSIAYVRDGVVAETGGHAFVRDLSTLPLPARDLTRKELYSFARTPNFSLYRTPEGKTEKHLFSSRGCVNRCTFCVAHKNIGIRVRPIDSVIGEVDLLLREYDAGYIFFCDSLFTSRKKRIIELSDALRHHFPGLRWGCEAHVNTIDEDSVRAMAAGGCVDMNFGIESGVDRLLTAVNKRQTTAQIADAIRMVKRVSRINAIGLFILGLPGERPEDSDATIDFACSLPLDMAQFSILTPYPGSPIFEQLRAEGIIDDGVRPGDTLDPEVWRRYSSYASFSDNKPIWVTPEHSVEGLLAAQKRALRRFYLRPRPFLIQLRRLRPADLLDTARTFFKTFF”, with “failed”; and “MVLTLDLADPAQPEHVFIVEDSRGATELKLYKSHYTIGKADSCDIRLHSIYASRQHATLVRFLTENGEVRYRLIDGDPETSRRSANGTYVNNRSITECDLKHYDQILFGADVKATYFYLSPQFRSLEHHHHHH”, with “not failed”. Then “MNLASIIGWGVGFGAILISMAFTPTGLGVFWDLSSVFITVVGSFSALMASSEVVAVKKIPTYLGFFFRRNSYAKVSIIKILVELSEKARKEGLLSLDDELEQINDPFFKSGMRLVVDGADPEVIRTMLYLELDQMQERHKVGSDLFKTWAKLAPAFGMTGTLIGLVALLGNLEDKSALGSSMAVALITTLYGTIMANLMFTPVQLKLEKIDTEEAAVKTMIIEGVLSIQSGDNPRILEQKLMTFLTPKDRSQLNSSIGGE”, with “failed”; and “MIIETERLLLRPFNEQDVDALYLMNSNPAMLKYIPTAPFTDREQARELFHNVILQDYQQRGFGRWAVEHKADNRVIGFCGPKFIPEFNEVEIGYRYFPEYWGKGIGTEAAEAALSVFPQFGIKQTIALILEGNLGSETVAKRVGMYWREHSEFMGHKINVYAKIL”, with “failed”. “MFSPEGPTRRELAVQALSSVERGYDLLAPKFDHTPYRTPDRVLDAVARGLEPLGPFAAGLDLCCGTGAGVEVLARVCQRDVTGVDFSAGMLEVARRRTLPPGPEVSWVRADARALPFGPAFDLVVSFGAFGHFLPRELPGLFGQVRSVLRPDGCFAFPVAAPPRPGSPGYWTLLGFDAAMRVRNALWRPPFVMYYRTFRLGAVGRELSRAGFRTDLHALPEFGRRPDGSPRARLVVARRLP”: the protein production entry is “failed”. With “MTTPIALRDWRLLAAGCGGLLLLAAAITLHSHWGDFLQWCLATQITLHRYLVMYLLLLNNHQYSGGIWLLVGAFLYGVLHAVGPGHGKFIVTTYLSTNQESLTAARVVPFLGSLLQGVTAILFVFILAVGLNLAAGDLSASRWYVEKISALTIGVFGAYVIFRALQSLWPTKQVIRRLTPAHQHDASCGCGHHGVGQDMQGADWKTRLGVVLAIGVRPCSGAIMILLFANALGIVSWGIAAVMSMALGTALSILGLSLLVHYARHRTVKRLVTNHRPRPWLVPLVKILGGLALILFAVGLFFSVVPISANGDFIAAGC”, the protein production entry was “failed”. Then “KLYGSIFTGASKFRCKDCSAAYDTLVELTVHMNETGHYRDDNHETDNNNPKRWSKPRKRSLLEMEGKEDAQKVLKCMYCGHSFESLQDLSVHMIKTKHYQKV”, with “not failed”; and “SGTFDSQCHECFESKERWYEIGPTDLLERKGSLTLRSHHKKYSEPVLVYSWHRNREAFPKDYDIESLETVKNLCMSTYKRFGSDSPRWMSEAREQMAQVLVNKDLVEKKKTGLLDEETLCPGILERDPELPPTGFRDVPMESPPDPRKPCFSTTYSEDFTPQYEYPPPACPRREEYSIVHRKCRSQFTDLNGSKRLGINTWHDESGIYANSEAKQKLYALARNPIVPF”, with “failed”; and “MARSVVVSAEAVYSHEGEYVGDHVLVDEGLVKSISRGEPHVSVGKRVAVKGFLLPPLVDAHLHMRSLGASFRIVNLKGASSPEEVAKRLAAANSPIAVGRGWNEEEFRPGSRLDRRILDSYLGEKPALAVRICGHVAVANSAFIRESGVDKLFPNLVDRERGLLLEDAVSYAVSVAMKTYNNEELLRDAASALASVGVFGVSSMACSEEEVRALSLIGDALEVRVACYLRRGVEPPPKRAGARWSIVGVKLFADGSLGGRTAYLRRPYISGENEGWRGLKLLSSRDIAEEAVSNSHRGLATAVHAIGDAALDEVLEGFSNAISRGVEPGMLRVEHASLAWPNQIDRLASLRVWTVVQPLFRVSDWWLESRVGSDMLQAAYPFASMLRAGVKLALSTDAPVETYDPAETFKAAVGLCSSRLCRESESLTPRETLKLYTLNSALASGGPVAWLGRLRRGAPALFAVANVDVLNSGRKELEKLKFRGLNLAK”, with “failed”. Then “MTKQPDLLKVDWSAIPAPDDDGAAAHLPGARIQPVALPATDGSSVTLSSLPGRTVLFIYPRTGVPGQISLVDDWDMIPGARGCTPQTCSFRDLFTDLKTAGADAVFGLSTQSSAYQSEMATRLHLPFPVLSDESLELTRALNMPTMQVAGMTLLKRMALIIDDGRISHVFYPVFPPDRNAGDVLEWLKANPR”, with “failed”; and “MDFQAVTDELKTWTKARVMPGFSVALLTGKTVQTAVSGEAQWFPQPAPLQPHMLYDVASLTKVIGTTTVFLQAWDQGLVSPDMPLHRFLPDFPHTTTFRQALTHTSGLEGYIPHRNALPAPALKQALMTQLTVTEEVDRQVVYRDVNLLLVGWALEQVYHQPIQTLITRQVIQPLALPQATFQPDSQQCVPTTYSPAVGLRQGVVHDPKSAILGKHSGAAGLFASLADLVTFTEYFFGNRQSASWPAHAVDLTQDWTKHHLGRSLGWDLRRDGQGRLWLYHTGYTGTFWLIQPDDQLALVVLTNRVHPQPNPAFLARRDALIARFLSDFKTMPAV”, with “failed”.
